Data published in patent US20150266954A1 (Eli Lilly, published 2015).
Changes are numbered by the printed parent chain. Names and notes keep the numbering of the source. Each block holds one binder with its values, some of them ahead of it.

How the values were obtained:
human IL-21 [1] = target: T1, human IL-21 (human, UniProt Q9HBE4 32-162); test: cell-based or functional assay
cynomolgus monkey IL-21 [2] = target: T2, cynomolgus monkey IL-21 (cynomolgus monkey, UniProt Q9HBE4 32-162 (human entry)); test: KinExA solution equilibrium binding, 37 C, n=3
T2 construct: not in a public database; also called Cyno IL-21; cynomolgous monkey IL-21
T2 sequence (Q9HBE4 other isoform, or with tags, fused parts or gaps): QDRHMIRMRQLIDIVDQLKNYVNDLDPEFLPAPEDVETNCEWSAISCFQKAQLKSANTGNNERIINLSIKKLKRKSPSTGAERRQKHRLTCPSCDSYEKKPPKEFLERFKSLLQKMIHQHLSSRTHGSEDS
Method: (§1) Ab327 is an engineered, humanized monoclonal IgG4 antibody that binds and neutralizes human IL-21. The purpose of this study was to determine the binding affinity of Ab327 for human, cynomolgus monkey, mouse, rat, and rabbit IL-21 (the sequences are given below). […] KinExA solution equilibrium binding experiments were performed using a fixed antibody concentration protocol and 2-fold serial dilutions of IL-21. Samples were equilibrated at 37° C. for 6-36 hours prior to analysis. Free antibody in the equilibrated samples was detected using a Dylight 649-conjugated anti-human IgG Fc polyclonal antibody. The resulting percent free antibody versus antigen concentration data were fit to an “affinity, standard” binding model using the KinExA Pro software, and the best fit binding affinity value (KD) was determined
(§2) The average KD from three independent experiments along with the standard deviation (human, cynomolgus monkey, mouse, and rat) or from a single determination (rabbit IL-21) is summarized in Table 3 below (apparent solution equilibrium binding affinity (KD) of Ab327).

mouse IL-21 = mouse IL-21 (mouse, UniProt Q9ES17 18-146); test: KinExA solution equilibrium binding, 37 C, n=3
Method: as §1, §2

rat IL-21 = rat IL-21 (rat, UniProt A3QPB9 18-146); test: KinExA solution equilibrium binding, 37 C, n=3
rat IL-21, sequence (A3QPB9 18-146): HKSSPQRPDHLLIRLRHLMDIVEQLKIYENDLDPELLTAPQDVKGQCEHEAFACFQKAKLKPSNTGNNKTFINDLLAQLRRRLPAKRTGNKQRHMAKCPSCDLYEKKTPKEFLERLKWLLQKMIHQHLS
Method: as §1, §2

human IL-21 [3] = target: T1, human IL-21; test: KinExA solution equilibrium binding, 37 C, n=3
Method: as §1, §2

human IL-21 [4] = target: T1, human IL-21; test: cell-based or functional assay; remark: listed apart in the source
human IL-7 = target: T3, human IL-7 (human, UniProt P13232 26-177); test: ELISA, Ab327 captured on plate, biotinylated cytokine
T3 sequence (looked up): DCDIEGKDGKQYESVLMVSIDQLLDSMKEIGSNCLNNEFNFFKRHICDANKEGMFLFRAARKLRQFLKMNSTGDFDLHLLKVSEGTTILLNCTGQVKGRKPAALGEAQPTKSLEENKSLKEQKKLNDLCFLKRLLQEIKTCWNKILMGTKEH
Method: (§3) The objective of this study was to determine the binding specificity of Ab327 to human IL-21 as compared with the other members of the common-gamma (γc) chain receptor cytokines. The cytokine receptor γc-chain family consists of six members, IL-2, IL-4, IL-7, IL-9, IL-15, and IL-21. All members of this family signal through receptor complexes that contain the γc subunit. The specificity of Ab327 for binding to other human γc chain cytokine family members was determined using an ELISA. Briefly, Ab327 was captured on an ELISA plate coated with goat anti-human kappa IgG. Cytokines labeled with biotin titrated from 100 nM-780 pM were then added to the plate for 1 hour at 37° C. and any bound cytokine was detected using Neutravidin labeled with alkaline phosphatase. Commercially available mouse monoclonal antibody to IL-2 and goat polyclonal antibodies to IL-4, IL-7, IL-9 and IL-15 captured with donkey anti-goat IgG gave positive signals after binding the biotinylated cytokines and detection with Neutravidin.

human IL-2 = human IL-2 (human, UniProt P60568 21-153); test: as above
human IL-2, sequence (P60568 21-153 limits assumed): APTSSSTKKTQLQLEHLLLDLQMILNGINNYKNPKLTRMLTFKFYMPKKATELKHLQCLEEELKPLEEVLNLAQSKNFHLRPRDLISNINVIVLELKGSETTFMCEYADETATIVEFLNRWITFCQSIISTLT
Method: as §3

human IL-9 = human IL-9 (human, UniProt P15248 19-144); test: as above
human IL-9, sequence (P15248 19-144 limits assumed): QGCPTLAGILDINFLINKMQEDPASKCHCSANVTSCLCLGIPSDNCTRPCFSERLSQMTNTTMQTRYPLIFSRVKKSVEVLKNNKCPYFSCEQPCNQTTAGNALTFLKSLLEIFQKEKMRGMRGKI
Method: as §3

human IL-4 = target: T4, human IL-4 (human, UniProt P05112 25-153); test: as above
T4 sequence (looked up): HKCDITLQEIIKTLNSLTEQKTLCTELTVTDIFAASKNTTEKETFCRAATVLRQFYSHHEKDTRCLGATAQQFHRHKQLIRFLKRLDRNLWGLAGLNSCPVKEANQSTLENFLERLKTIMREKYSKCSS
Method: as §3

human IL-15 = human IL-15 (human, UniProt P40933 49-162); test: as above
human IL-15, sequence (P40933 49-162 limits assumed): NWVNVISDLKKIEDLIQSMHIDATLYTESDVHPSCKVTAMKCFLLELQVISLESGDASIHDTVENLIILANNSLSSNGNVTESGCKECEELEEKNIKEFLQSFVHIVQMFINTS
Method: as §3

cynomolgus monkey IL-21 [5] = target: T2, cynomolgus monkey IL-21; test: cell-based or functional assay
human IL-21 [6] = target: T1, human IL-21; test: cell-based or functional assay; remark: listed apart in the source
cynomolgus monkey IL-21 [7] = target: T2, cynomolgus monkey IL-21; test: assay not named; cynomolgus monkey IL-21
human IL-21 [8] = target: T1, human IL-21; test: assay not named; human IL-21
human IL-21 [9] = target: T1, human IL-21; test: assay not named

T1 sequence (Q9HBE4 32-162): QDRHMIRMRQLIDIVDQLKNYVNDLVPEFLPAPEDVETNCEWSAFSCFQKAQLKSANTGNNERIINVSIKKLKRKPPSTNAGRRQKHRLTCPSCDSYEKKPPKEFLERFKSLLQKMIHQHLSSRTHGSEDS

fold increase of plasma cells (CD38 high, IgD low), donor 1, 26.7 nM antibody (IL-21 without antibody: 176) (human IL-21 [1]): 11.7 fold | fold increase of plasma cells (CD38 high, IgD low), donor 2, 26.7 nM antibody (IL-21 without antibody: 114) (human IL-21 [1]): 3.38 fold | fold increase of plasma cells (CD38 high, IgD low), donor 3, 26.7 nM antibody (IL-21 without antibody: 47) (human IL-21 [1]): 7.81 fold | fold increase of plasma cells (CD38 high, IgD low), donor 4, 26.7 nM antibody (IL-21 without antibody: 68) (human IL-21 [1]): 6.87 fold | fold increase of plasma cells (CD38 high, IgD low), donor 5, 26.7 nM antibody (IL-21 without antibody: 22) (human IL-21 [1]): 3.64 fold | Kd (cynomolgus monkey IL-21 [2]): 0.3 pM | Kd (mouse IL-21): 240000 pM | Kd (rat IL-21): 230000 pM | Kd (human IL-21 [3]): 0.8 pM | IC50, IL-21-induced proliferation of primary human B cells (3H-thymidine uptake) (human IL-21 [4]): 1150 pM | binding result (human IL-7): no binding (tested: 100 nM) | binding result (human IL-2): no binding (tested: 100 nM) | binding result (human IL-9): no binding (tested: 100 nM) | binding result (human IL-4): no binding (tested: 100 nM) | binding result (human IL-15): no binding (tested: 100 nM) | IC50, IM9 pan-STAT-luciferase reporter assay, IL-21 at 66.67 pM (cynomolgus monkey IL-21 [5]): 48.3 pM | IC50, IM9 pan-STAT-luciferase reporter assay, IL-21 at 66.67 pM (human IL-21 [6]): 46.7 pM | Kd (cynomolgus monkey IL-21 [7]): ~0.5 pM | Kd (human IL-21 [8]): ~0.5 pM
B1: Ab327 (antibody, human IgG4 S228P, kappa, F234A L235A, V domains shown)
VH: QVQLVQSGAEVKKPGASVKVSCKASGYTFTDYWMHWVRQAPGQGLEWMGLIDTSDVYTIYNQKFKGRVTMTRDTSTSTVYMELSSLRSEDTAVYYCARYGPLAMDYWGQGTLVTVSS
VL: DIQMTQSPSSLSASVGDRVTITCRASQDISNYLNWYQQKPGKAPKLLIYYTSRLHSGVPSRFSGSGSGTDFTLTISSLQPEDFATYYCQQFHTLRTFGGGTKVEIKR
modifications: N-linked glycosylation site at Asn294 of SEQ ID NO:3 may be glycosylated
notes: Engineered, humanized IgG4 (S225P, F231A/L232A) kappa antibody; expressed in HEK293 or CHO cells; also called final engineered humanized antibody; IL-21 antibody

Kd (human IL-21 [9]): ~0.5 pM
B2: humanized antibody with CDRs derived from antibody 15M2, utilizing the 1-46 heavy chain human framework and O2 human light chain framework (antibody, V domains shown)
VH: B1 VH with V56S
VL: DIQMTQSPSSLSASVGDRVTITCRASQDISNYLNWYQQKPGKAPKLLIYYTSRLHSGVPSRFSGSGSGTDFTLTISSLQPEDFATYYCQQFNTLRTFGGGTKVEIK
notes: Human IgG4 expression vectors; also called the humanized antibody

Kd (cynomolgus monkey IL-21 [7]): ~2 pM | Kd (human IL-21 [8]): ~2 pM
B3: engineered antibody containing both heavy chain Asp55Glu and light chain Asn92His mutations (antibody, V domains shown)
VH: B1 VH with D55E, V56S
VL: B2 VL with N92H
notes: Human IgG4
